Experimental findings from patent US20240058478A1, “FOLATE RECEPTOR-TARGETED CONJUGATES, COMPOSITIONS, AND DELIVERY TO THE CENTRAL NERVOUS SYSTEM” (PURDUE RESEARCH FOUNDATION, priority 2021, published 2024) are described below.

In series [1] the test system is folate receptor-positive cells. The series is described as follows: FRES uptake in SCI: NIR imaging of transverse spinal cord sections, conjugate vs unconjugated dye. Format: in vivo, Sprague Dawley rats. The following applies: for NIR signal in the spinal cords: SCI rats, injected day 7 after injury, imaged day 8, conjugate vs unconjugated NIR dye. Here is the method:
Adult male Sprague Dawley rats were given a moderate grade SCI. The rats were injected with OTL38 or unconjugated NIR dye on day 7 after injury. On day 8, the spinal cords were removed and imaged for NIR signal.
FIGS. 11A-11B show transverse spinal cord sections of the rostral portions (FIG. 11A) and epicenters (FIG. 11B) of a rat with SCI and injected seven days after injury with OTL38. […] The results are shown in FIG. 11D, which is a bar graph of mean fluorescence intensity vs. rostral portion and epicenter showing OTL38 uptake (students t-test, **p<0.01).

Series [2] concerns eye. The note with it: mouse, in vivo.
Description: Given the extensive time that OTL38 remained in the eyes, signal in the presence of the folate competitor folate-glucosamine (Fol-Glc) was tested. Healthy, wild-type mice were injected with 10 nmols OTL38. Some mice were subsequently injected with Fol-Glc. All mice were subsequently sacrificed and examined in comparison to noninjected mice.
Series [3] deals with rats with cortex laceration of the left hemisphere. The series can be described thus: FRES uptake in cortex laceration: NIR imaging of the cortex. In kind it is in vivo, Sprague Dawley rats. The note with it: injected seven days after cortex laceration, brains removed next day. The procedure: Adult male Sprague Dawley rats were given brain injuries by cortex laceration of the left hemisphere using a small ophthalmic knife. Seven days after injury, the rats were injected with OTL38. The brains were removed the next day, and the cortexes were imaged.
FIGS. 13A-13B show a precise surface laceration injury in the cortex of the left hemisphere of the brain. FIG. 13A is a cartoon indicating the area of injury (blue circle) and the area imaged (blue rectangle). […] The right hemisphere cortex served as an internal control (uninjured, no signal).
Choroid plexus cells in the ventricles produce CSF and are the site of FRES release into the subarachnoid space, where the brain and spinal cord continue to be perfused. The 4th ventricle and lateral recess contain choroid plexus cells and are the site of outflow for newly produced CSF. The intense signal below the cerebellum (blue arrow) is a result of concentrated choroid plexus cells and FRES/new CSF production and entry for CNS perfusion. […] The opposite hemisphere represents an internal control with no areas of enhanced signal.

Series [4] deals with eye. The note with it: rat, in vivo.
Description: An adult male Sprague Dawley rat was intravenously injected with OTL38 and imaged 24 hours later. […] Red and green colors indicate signal from the dye, with red showing the most intense regions.
In series [5] the target is T1, folate receptors on cells of the choroid plexus (Mus musculus, UniProt P35846).
T1 construct: the uptake of OTL38 is mediated by folate receptors on cells of the choroid plexus; from tissue; host or cells: choroid plexus of live B6 male mice (in vivo, ex vivo NIR imaging of brain)
T1 sequence (P35846 25-232): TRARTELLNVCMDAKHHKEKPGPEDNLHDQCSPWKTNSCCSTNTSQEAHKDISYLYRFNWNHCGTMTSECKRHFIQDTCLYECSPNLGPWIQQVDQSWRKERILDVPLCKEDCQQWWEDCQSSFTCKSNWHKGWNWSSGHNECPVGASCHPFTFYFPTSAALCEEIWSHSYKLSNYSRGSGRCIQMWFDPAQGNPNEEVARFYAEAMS
The series is described as follows: Transport of folate conjugates across blood-cerebrospinal fluid barrier: NIR imaging of brain/choroid plexus. In kind it is in vivo, B6 male mice. From the text: Corresponding ventral side of the spinal cords are shown to the left of each brain. […] Green fluorescence indicates OTL38 signal. […] In the middle column (OTL38+Fol-Glu, n=4) minimal uptake is observed. In the far-right corner, Control (non-injected, n=1), no signal is observed. FIG. 9 is a graph of mean fluorescent intensity vs. time for CSF and blood. n=1-4 rats/timepoint.
B6 male mice were given an intravenous tail injection of a folate-fluorescent near infrared (NIR) dye conjugate (i.e., OTL38) and imaged. […] Corresponding ventral side of the spinal cords are shown to the left of each brain. […] Green fluorescence indicates OTL38 signal. […] In the middle column (OTL38+Fol-Glu, n=4) minimal uptake is observed. In the far right corner, Control (non-injected, n=1), no signal is observed.

For series [6], the system named is rats with controlled cortical impact (CCI) injuries. The series can be described thus: FRES uptake in controlled cortical impact (CCI) injury: NIR imaging of the cortex surface. Format: in vivo, Sprague Dawley rats. The note with it: intravenous injection ten days after CCI injury, imaged next day. From the text:
Adult male Sprague Dawley rats were given moderate grade controlled cortical impact (CCI) injuries. This injury represents concussion of the brain cortex, which is a more common injury in humans than laceration of the brain cortex. The impactor was circular and 6 mm in diameter. The rats were intravenously injected with OTL38 ten days after injury. The next day the rats were sacrificed, and the surfaces of the cortexes were imaged. […] The yellow arrow points to signal on the dorsal surface of the spinal cord.

Series [7] deals with folate receptor-positive cells. The series can be described thus: FRES uptake in spinal cord contusion injury (SCI): ex vivo NIR imaging of spinal cords. Set-up: species or system Sprague Dawley rats. The following applies: SCI rats. The procedure:
Adult male Sprague Dawley rats were given a moderate grade spinal cord contusion injury (SCI). The rats were injected with OTL38 or simultaneously with OTL38 and Fol-Glu on day 7 after injury. On day 8, the spinal cords were removed and imaged for NIR signal.
NR signal is represented by green and red colors, with red showing areas of high intensity. Blue arrows point to the epicenter of the SCI. “R” indicates the rostral portion of the spinal cord.

The nature of series [8]: Persistence of folate conjugate: NIR signal in blood and CSF over time. Format: in vivo, Sprague Dawley rats. The following applies: rats. The procedure: Adult male Sprague Dawley rats were injected with OTL38. Blood and cerebrospinal fluid (CSF) were then extracted at the same time at various timepoints and imaged. […] The data also indicate that the exposure of the CNS to the payload is extended over time.
FIG. 9 is a graph of mean fluorescent intensity vs. time for CSF and blood. n=1-4 rats/timepoint.

For `CC1(C)C(/C=C/C2=C(Cl)C(=C/C=C3/N(CCCCS(=O)(=O)[O-])c4ccc(S(=O)(=O)[O-])cc4C3(C)C)/CCC2)=[N+](CCCCS(=O)(=O)[O-])c2ccc(S(=O)(=O)[O-])cc21.[Na+].[Na+].[Na+]` [unconjugated NIR dye], the “NIR signal in the spinal cords” value in series [1] is “lack of signal”.
As to OTL38, the “OTL38 signal (mean fluorescence intensity) in eyes after administration of Fol-Glc” value in the series with eye [2] is given as “reduced”. Besides, the “NIR signal around the choroid plexus” value in series [3] is reported as “Increased signal around the choroid plexus”. Also, in series [3] (uninjured right hemisphere no signal), the “NIR signal at the cortex injury” value is “enhanced signal around the injury area”. Further, the “Uptake in the retina, eye slices” value with eye [4] was “strong OTL38 uptake in the area of the retina”. Besides, the “NIR signal at the eye, live imaging” value with eye [4] (iv) is recorded as “intense red signal at the eye”. In addition, in series [5] (mice co-injected with OTL38 and folate-glucosamine conjugate (Fol-Glu), competitor for folate receptors), the “NIR signal in the choroid plexus, co-injected with Fol-Glu” value is listed as “noticeable reduction in signal”. Besides, the “NIR signal in the choroid plexus” value in series [5] (mice, intravenous tail injection, 24 hours after injection) is “Strong signal”. The “NIR signal at the CCI injury” value in series [6] was “positive targeting of the 6 mm circular injury”. Also, the “Mean fluorescence intensity, epicenter vs rostral region” value in series [1] (SCI rat, transverse spinal cord sections, students t-test **p<0.01) is on record as “significant increase in signal in the epicenter as compared to the rostral region”. Also, the “NIR signal in the spinal cords” value in series [1] is on record as “Signal was observed”; in series [7] (injected day 7 after injury, spinal cords imaged day 8), “Strong signal”. In addition, the “NIR signal in the spinal cords, injected simultaneously with Fol-Glu” value in series [7] (OTL38+Fol-Glu on day 7 after injury, imaged day 8) is “lack of signal”. The “NIR signal in the blood relative to that of the CSF” value was “dropped and remained lower than that of the CSF” in series [8] (four hours post-injection and all subsequent timepoints); “nearly two-fold” in series [8] (two hours post-injection, blood exceeded CSF).
